B1: VPS39 (parent)
chain: QQVKCIITEEKVCMVCKKKIGNSA
B2: GLTSCR2 (parent)
chain: YNPSFEDHQTLLSAAHEVELQRQK

The text below walks through data of the supplement of paper PMC10567573.
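Note: lentivirally expressed fusions sorted by FACS into six bins by GFP to DsRed ratio, PSI derived from sequencing read proportions per bin multiplied by bin number.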

The first data set covers variants of B1. Briefly: protein stability index of a GFP-peptide fusion (GPS, HEK-293T) (PSI 1-6); higher = more stable. To be noted: c terminus: a fixed tail appended.
QQVKCIITEEKVCMVCKKYIGNSA [K19Y]: the protein stability index came out at 2.09.
Consider QQVKCIITEEKVCMVCKKKIGNSH [A24H], for which the protein stability index was 2.23.
Take QQVKCIITEEKVCMVCKKKIGNSC [A24C]: the protein stability index was determined as 3.03.
For QQVKCIITEEKVCMVCKKKIGNSM [A24M], the protein stability index was determined as 2.54.
On to QQVKCIITEEKVCMVCKKKIGNSI [A24I], for which the protein stability index is 2.49.
Take QQVKCIITEEKVCMVCKKKIGNSW [A24W]: the protein stability index worked out at 2.07.
In the case of QQVKCIITEEKVCMVCKKKIGNSD [A24D], the protein stability index worked out at 3.35.
As to QQVKCIITEEKVCMVCKKKIGNSS [A24S], the protein stability index was 2.37.
Consider QQVKCIITEEKVCMVCKKKIGNSL [A24L], for which the protein stability index amounted to 1.74.
Turning to QQVKCIITEEKVCMVCKKKIGNST [A24T], the protein stability index was found to be 2.93.
Still for that read-out and setting: the result for QQVKCIITEEKVCMVCKKKIGNSV [A24V] reads 2.24; that for QQVKCIITEEKVCMVCKKKIGNSN [A24N], 2.84.
Turning to QQVKCIITEEKVCMVCKKKIGNSE [A24E], the protein stability index was 2.48.
Still for that read-out and setting: the result for QQVKCIITEEKVCMVCKKKIGNSG [A24G] reads 2.29; that for QQVKCIITEEKVCMVCKKKIGNSK [A24K], 3.03.
On to QQVKCIITEEKVCMVCKKKIGNSQ [A24Q], for which the protein stability index stood at 2.79.
As to QQVKCIITEEKVCMVCKKKIGNSY [A24Y], the protein stability index was 2.57.
Still for that read-out and setting: the result for QQVKCIITEEKVCMVCKKKIGNSF [A24F] reads 2.1; that for QQVKCIITEEKVCMVCKKKIGNSP [A24P], 3.03; that for QQVKCIITEEKVCMVCKKKIENSA [G21E], 3.32.
Turning to QQVKCIITEEKVCMVCKKKITNSA [G21T], the protein stability index is 2.51.
As for QQVKCIITEEKVCMVCKKKIANSA [G21A], the protein stability index came out at 2.98.
Consider QQVKCIITEEKVCMVCKKKISNSA [G21S], for which the protein stability index was found to be 2.7.
As for QQVKCIITEEKVCMVCKKKIYNSA [G21Y], the protein stability index amounted to 2.3.
For QQVKCIITEEKVCMVCKKKILNSA [G21L], the protein stability index is 2.31.
For QQVKCIITEEKVCMVCKKKIFNSA [G21F], the protein stability index worked out at 2.87.
Take QQVKCIITEEKVCMVCKKKIRNSA [G21R]: the protein stability index was determined as 2.16.
Take QQVKCIITEEKVCMVCKKKIINSA [G21I]: the protein stability index is 3.17.
Same read-out and setting: the result for QQVKCIITEEKVCMVCKKKICNSA [G21C] reads 3.19; that for QQVKCIITEEKVCMVCKKKIWNSA [G21W], 1.76; that for QQVKCIITEEKVCMVCKKKIQNSA [G21Q], 2.76.
For QQVKCIITEEKVCMVCKKKIDNSA [G21D], the protein stability index amounted to 2.81.
QQVKCIITEEKVCMVCKKKIVNSA [G21V]: the protein stability index worked out at 3.1.
QQVKCIITEEKVCMVCKKKIHNSA [G21H]: the protein stability index is 2.93.
As to QQVKCIITEEKVCMVCKKKIMNSA [G21M], the protein stability index was found to be 2.13.
Still for that read-out and setting: the result for QQVKCIITEEKVCMVCKKKINNSA [G21N] reads 3.01.
On the same count and under the same terms, the result for QQVKCIITEEKVCMVCKKKIKNSA [G21K] reads 3.08; that for QQVKCIITEEKVCMVCKKKIPNSA [G21P], 2.55; that for QQVKCIITEEKVCMVCKKKIGMSA [N22M], 2.75.
Take QQVKCIITEEKVCMVCKKKIGQSA [N22Q]: the protein stability index is 3.38.
Same read-out and setting: the result for QQVKCIITEEKVCMVCKKKIGFSA [N22F] reads 2; that for QQVKCIITEEKVCMVCKKKIGWSA [N22W], 1.81.
On the same count and under the same terms, the result for QQVKCIITEEKVCMVCKKKIGVSA [N22V] reads 2.11; that for QQVKCIITEEKVCMVCKKKIGLSA [N22L], 2.57; that for QQVKCIITEEKVCMVCKKKIGASA [N22A], 2.21.
With QQVKCIITEEKVCMVCKKKIGISA [N22I], the protein stability index was 1.75.
With QQVKCIITEEKVCMVCKKKIGDSA [N22D], the protein stability index was determined as 3.7.
Regarding QQVKCIITEEKVCMVCKKKIGESA [N22E], the protein stability index came out at 3.33.
The same measure, in the same setting: the result for QQVKCIITEEKVCMVCKKKIGRSA [N22R] reads 1.84; that for QQVKCIITEEKVCMVCKKKIGTSA [N22T], 2.29; that for QQVKCIITEEKVCMVCKKKIGHSA [N22H], 2.25.
Consider QQVKCIITEEKVCMVCKKKIGSSA [N22S], for which the protein stability index was 2.62.
Consider QQVKCIITEEKVCMVCKKKIGCSA [N22C], for which the protein stability index came to 2.98.
Still for that read-out and setting: the result for QQVKCIITEEKVCMVCKKKIGGSA [N22G] reads 1.42; that for QQVKCIITEEKVCMVCKKKIGKSA [N22K], 2.79.
For QQVKCIITEEKVCMVCKKKIGYSA [N22Y], the protein stability index turned out to be 1.99.
QQVKCIITEEKVCMVCKKKIGNAA [S23A]: the protein stability index is 3.52.
On the same count and under the same terms, the result for QQVKCIITEEKVCMVCKKKIGNHA [S23H] reads 2.98; that for QQVKCIITEEKVCMVCKKKIGNYA [S23Y], 2.41.
Consider QQVKCIITEEKVCMVCKKKIGNIA [S23I], for which the protein stability index amounted to 1.73.
Consider QQVKCIITEEKVCMVCKKKIGNNA [S23N], for which the protein stability index came out at 2.41.
Still for that read-out and setting: the result for QQVKCIITEEKVCMVCKKKIGNWA [S23W] reads 1.82.
On to QQVKCIITEEKVCMVCKKKIGNRA [S23R], for which the protein stability index is 2.77.
On to QQVKCIITEEKVCMVCKKKIGNQA [S23Q], for which the protein stability index came out at 2.5.
As for QQVKCIITEEKVCMVCKKKIGNVA [S23V], the protein stability index was found to be 2.19.
As for QQVKCIITEEKVCMVCKKKIGNCA [S23C], the protein stability index worked out at 3.62.
Still for that read-out and setting: the result for QQVKCIITEEKVCMVCKKKIGNPA [S23P] reads 2.4.
For the variant QQVKCIITEEKVCMVCKKKIGNGA [S23G], the protein stability index came out at 3.05.
Turning to QQVKCIITEEKVCMVCKKKIGNEA [S23E], the protein stability index is 4.07.
Consider QQVKCIITEEKVCMVCKKKIGNDA [S23D], for which the protein stability index came to 3.6.
Take QQVKCIITEEKVCMVCKKKIGNTA [S23T]: the protein stability index stood at 2.78.
On to QQVKCIITEEKVCMVCKKKIGNLA [S23L], for which the protein stability index came out at 1.45.
For QQVKCIITEEKVCMVCKKKIGNKA [S23K], the protein stability index was 3.09.
Same read-out and setting: the result for QQVKCIITEEKVCMVCKKKIGNFA [S23F] reads 1.95; that for QQVKCIITEEKVCMVCKKKHGNSA [I20H], 4.29; that for QQVKCIITEEKVCMVCKKKCGNSA [I20C], 3.26.
As for QQVKCIITEEKVCMVCKKKRGNSA [I20R], the protein stability index came out at 3.26.
Regarding QQVKCIITEEKVCMVCKKKQGNSA [I20Q], the protein stability index was determined as 3.53.
On to QQVKCIITEEKVCMVCKKKTGNSA [I20T], for which the protein stability index was determined as 2.89.
The same measure, in the same setting: the result for QQVKCIITEEKVCMVCKKKNGNSA [I20N] reads 2.69; that for QQVKCIITEEKVCMVCKKKPGNSA [I20P], 3.17.
Take QQVKCIITEEKVCMVCKKKLGNSA [I20L]: the protein stability index stood at 3.15.
In the case of QQVKCIITEEKVCMVCKKKGGNSA [I20G], the protein stability index came to 2.79.
Same read-out and setting: the result for QQVKCIITEEKVCMVCKKKVGNSA [I20V] reads 1.95.
As for QQVKCIITEEKVCMVCKKKFGNSA [I20F], the protein stability index was 3.06.
The same measure, in the same setting: the result for QQVKCIITEEKVCMVCKKKAGNSA [I20A] reads 3.35; that for QQVKCIITEEKVCMVCKKKMGNSA [I20M], 3.33; that for QQVKCIITEEKVCMVCKKKSGNSA [I20S], 3.67.
As for QQVKCIITEEKVCMVCKKKEGNSA [I20E], the protein stability index is 4.03.
For QQVKCIITEEKVCMVCKKKYGNSA [I20Y], the protein stability index was determined as 3.15.
For QQVKCIITEEKVCMVCKKKKGNSA [I20K], the protein stability index is 3.58.
Same read-out and setting: the result for QQVKCIITEEKVCMVCKKKDGNSA [I20D] reads 3.51.

The variants in the next data set derive from B2. The data set is described as above. Conditions: c terminus: a fixed tail appended.
For ANPSFEDHQTLLSAAHEVELQRQK [Y1A], the protein stability index was 4.93.
As to CNPSFEDHQTLLSAAHEVELQRQK [Y1C], the protein stability index stood at 4.78.
